Test results reported in the RNAGym collection of RNA variant scans (doi:10.1073/pnas.2313332121).
This sample holds only a part of the variants without activity.

B1: TPR 5TU (parent)
chain: GGAUCUUCUCGAUCUAACAAAAAAGACAAAUCUGCCACAAAGCUUGAGAGCAUCUUCGGAUGCAGAGGCGGCAGCCUUCGGUGGCGCGAUAGCGCCAACGUUCUCAACUAUGACACGCAAAACGCGUGCUCCGUUGAAUGGAGUUUAUCAUG

Variants of: B1
Assay: polymerase ribozyme fitness, log enrichment relative to wild type (log ratio); higher = more active; in vitro selection for triplet polymerase activity
How it was run: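 Genotype fitness is the logarithm of its enrichment divided by wild-type enrichment, using inverse-variance-weighted averages of replicates. That logarithm is base 2. Enrichment was measured by Illumina sequencing of input and output libraries from one triplicate in vitro selection round, with frozen incubation at −7 °C, on PCR-built, transcribed mutant libraries of each subunit of a heterodimeric triplet polymerase ribozyme, retaining genotypes with ≥10 input reads and ≥1 read per output.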

GGAUCUUCUCGAUCUAGCAAAAAAGACAAAUCUGCCACAAAGCUUGAGAACAUCGUCGGAUGCAGAGGCGGCAGCCUUCGGUGGCGCGUUAGAGCCAACGUUCUCAACUAUGACACGCAAAACGCGUGCUCCGUUGAAUGGAGUUUAUCAUG and GGAUCUUCUCGAUCUAGCAAAAAAGACAAAUCUGCCACAAAGCUUGAGAGCAUCUUCGGAUGCAGAGGCGGCAGCCUUCGGUUGCGCGAUAGCGCCAACGUUCUCAUCUAUGACACGCAAAACGCGUGCUCCGUCGAAUGGAGUUUAUCAUG cannot be ordered by “polymerase ribozyme fitness (log ratio)” value: at most -4.2 for the first, at most -4.2 for the second.

Going from GGAUCUUCUCGAUCUAGCAAAAAAGACAAAUCUGCCACAAAGCUUGAGAGCAUCUUCGGAUGCAGAGGCAGCAGCCUUCGGUGGGGCGAUAGCGCCAACGUUCUCAACUAUGACACGCAAAACGCGUGCUCCGUUGAAUGGAGUUUAUCAUG to GGAUCUUCUCGAUCUAGCAAAAAAGACAAAUCUGCCACAAAGCUUGAGAGCAUCUUCGGAUGCAGAGGCGGCAGCCUUCGGUGGCGCGAUAGCGCCAACGUUCUCAACUAUGACACGCAAAACGCGUGCUCCUUUGAAUGGAGUUUAUCAUG, the “polymerase ribozyme fitness (log ratio)” value rises from at most -4.2 to -3.47.

Compared with GGAUCUUCUCGAUCUAGCAAAAAAGACAAAUCUGCCACAAAGCUUGAGAGCACCUUCGGAUGCAGAGGCGGCGGCCUUCGGUGGCGCGAUAGCGCCAACGUUCUCAACUAUGACACGCAAAACGCGUGCUCCGUUGAAAGGUGUUGAUCAUG, GGAUCUUCUCGAUCUAGCAAAAAAGACAAAUCUGCCACAAAGCUUGAGAGCAUCUACGGAUCCAGAGGCGGCAGCCUUCGGUGGCGCGAUAGCGCCAACGUUCUCAACUAUGACACGCAAAACGCGUGCUCCGUUGAAUGGAGUUUAUCAUA is higher in “polymerase ribozyme fitness (log ratio)” value: at most -4.2 for the first, -3.06 for the second.

Going from GGAUCUUCUCGAUCUAGCAAAAAAGACAAAUCUGCCACAAAGCUUGAGAGCAUCUUCGUAUGCAGAGGCGGCAGCCUUCAGUGGAGCGAUAGCGCCAACGUUCUCAACUAUGACACGCAAAACGCGUGCUCCGUUGAAUGGAGUUUAUCAUG to GGAUCUUCUCGAUCUAGCAAAAAAGACAAAUCUGCCACAAAGCUUGAGAGCAUCUUCAGAUGCAGAGGCGGCAGCCUUCGGUGGCGCGAUAGUGCCAACGGUCUCAACUAUGACACGCAAAACGCGUGCUCCGUUGAAAGGAGUUUAUCAUG, the “polymerase ribozyme fitness (log ratio)” value falls from -0.447 to at most -4.2.

Compared with GGAUCUUCUCGAUCUAGCAAAAAAGACAAAUCUGCCACAAAGCUUGAGAGCAUCUUCGAAUGCAGAGGCGGCAGCCUUCGGUGGCGCGAUAGCGCCAACGUUCUCAACUAUGACACGCAAAACGCGUGCUCCGUUGAAUGGACUUUAUCAUG, GGAUCUUCUCGAUCUAGCAAAAAAGACAAAUCUGCCACAAAGCUUGAGAGCAUCUUCGGAUGCAGAGGCGGCAGCCUUCGGUGGCGCGAUAGCGCCAACUUUCUCAACUAUGACACGCAAAACGCGUGCUCCGUUGAAUGGAGUUUAUCAUG is lower in “polymerase ribozyme fitness (log ratio)” value: -1.26 for the first, -4.01 for the second.

Compared with GGAUCUUCUCGAUCUAGCAAAAAAGACAAAUCUGCCACAAAGCUUGAGAGCAUCUUCGGAUGCAGAGGCGGCAGCCUUCGGUGGCGCGAUAGCGCCAACGUUCUCAACUAUGACACGCAAAACGCGUGCUCCGUUGAAUGCAGUUUAUCAUG, GGAUCUUCUCGAUCUAGCAAAAAAGACAAAUCUGCCACAAAGCUUGAGAGCAACUUCGGAUGCAGAGGCGGCAGCCUUCGGUGGCGCGAUAGCGCCAACGUUCUCAACUAUGACACGCAAAACGCGUGCUCCGUUGAAUGGAGUUUAUCAUG is lower in “polymerase ribozyme fitness (log ratio)” value: 0.607 for the first, -0.401 for the second.

Compared with GGAUCUUCUCGAUCUAGCAAAAAAGACAAAUCUGCCACAAAGCUUGAGAGCAUCUUCCGAUGCAGAGGCGGUAGCCUUCGGUGGCGCGAUAGCGCCAACGUUCUCAACUAUGACACGCAAAACGCGUGCUCCGUUGAAUGGAGUUUAUCAUA, GGAUCUUCUCGAUCUAGCAAAAAAGACAAAUCUGCCACAAAGCUUGAGAGCAUCUUCGGAUGCAGAGGCGGCAGCCUUCGGUGUCGCGAUAGCGCCAACGUUCUCAACUAUGACACGCAAAACGCAUGCUCCGUUGAAUGGAGUUUAUCAUG is higher in “polymerase ribozyme fitness (log ratio)” value: -2.87 for the first, -1.39 for the second.

Going from GGAUCUUCUCGAUCUAGCAAAAAAGACAAAUCUGCCACAAAGCUUGAGAGCAUCUUCAGAUGCAGAGGCGGCAGCCUUCGGUGGCGCGAUAGCGCCAACGUUCUCAACUAUGACACGCAAAACGCGUGCUCCGUUGAAUGGAGUUUAUCAUG to GGAUCUUCUCGAUCUAGCAAAAAAGACAAAUCUGCCACAAAGCUUGAGAGCAUCUUCGGAUGCAGAGGCAGCAGGCUUCGGUGGCGCGAUAGCGCUAAGGUUCUCAACUAUGACACGCAAAACGCGUGCUCCGUUGAAUGGAGUUUAUCAUG, the “polymerase ribozyme fitness (log ratio)” value falls from 1.26 to -4.15.

First: GGAUCUUCUCGAUCUAUCCAAAAAGACAAAUCUGCCAAAAACCUUGAGAGCAUCUACGGAUGCAGAGGCGGCAGCCUGCGGUGGCGCGAUAGCGCCAACGUUCUCAACUAUGUCACGCAAAACGCGUGCUCGGUUGAAUGGGGUUUAACAUG
Second: GGAUCUUCUCGAUCUAGCAAAAAAGACAAAUCUGCCACAAAGCUUGAGACCAUCUUCGGAUGCAGAGGCGGCAGCCUUCGGUGGCGCGAUAGCGCCAACGUUCUCAACUAUGACACGCAAAACGCGUGCUCCGUUGAAUGGAGUUUAUCAUG
The “polymerase ribozyme fitness (log ratio)” value of the first is lower: at most -4.2 for the first, -2.81 for the second.

With GGAUCUUCUCGAUCUAGCAAAAAAGACAAAUCUGCCACAAAGCUUGAGAUCAUCUUCGGAUGCAGAGGCGGCAGCCUUCGGUGGCGCGAUAGCGCCAACGUUCUCAACUAUGACACGCAAAACGCGUGCUCCGUUGAAUGGAGUUUAUCAUG the “polymerase ribozyme fitness (log ratio)” value was 0.372.
